This is an account of results in US20140154243A1 (Amgen, published 2014).

Where only a bound is given, the exact number is not on record here.

The target in assay [1] is T1, human hepatocyte growth factor (HGF) (human, UniProt P14210 32-728). Put plainly: cell-based or functional assay.
The target in another assay is T2, mouse HGF (mouse, UniProt Q08048 33-728).
T2 construct: also called recombinant mouse HGF; mHGF
Put plainly: Western blot, non-reducing and reducing SDS-PAGE. Here is the method: Human HGF and mouse HGF were run on separate lanes of SDS PAGE gels. Human HGF and mouse HGF were each separately run at 100 ng/lane and at 10 ng/lane. Some gels were run under non-reducing conditions and other separate gels were run under reducing conditions using beta-mercaptoethanol. The human HGF and mouse HGF in the SDS PAGE gels were transferred to nitrocellulose membranes. Those membranes were separately incubated with one of the ten antibodies to HGF described in Example 6. Each of the ten antibodies to HGF was separately incubated with nitrocellulose membranes from gels containing human HGF and mouse HGF under reducing and with nitrocellulose membranes from gels containing human HGF and mouse HGF under non-reducing conditions. The membranes were then incubated with a goat anti-human IgG antibody linked to HRP (Pierce, Rockford, Ill., Cat. #31412). Signal from that goat anti-human IgG antibody linked to HRP was detected by […] (ECL™; Amersham Pharmacia Biotech, Piscataway, N.J., Cat. # RPN₂₁₀₆) following the manufacturer's instructions.

Assay [2] concerns the target T1, human hepatocyte growth factor (HGF). The experiment in a line: neutralization ELISA (right table): inhibition of the binding of soluble Met (2 nM) to plate-coated HGF, detected with biotinylated anti-cMetR antibody and Eu-streptavidin; column head 'IC50 IP (nM)'. Here is the method: (§1) A neutralization ELISA assay was developed to assess whether the antibodies discussed in Example 6 could interrupt Met-HGF binding. Delphia 96-well plates (Cat#: AAAND-0001, Wallac Inc., Gaithersburg, Md.) were coated with HGF by adding 100 μl of HGF at 6.25 μg/ml per well. The plates were incubated at 37° C. for 1 hour or at 4° C. overnight. The plates were then blocked with 5% BSA (Cat#50-61-00, KPL, Gaithersburg, Md.) in PBS containing 0.1% Tween 20 for 1 hour at room temperature with shaking.
(§2) Test samples were prepared by separately mixing soluble Met (2 nM, 0.256 μg/ml) with different concentrations of a particular antibody to HGF being tested. The concentrations tested were: 667 nM, 223 nM, 74.1 nM, 24.7 nM, 8.2 nM, 2.7 nM, 0.91 nM, 0.30 nM, 0.10 nM, and 0.034 nM. A volume of 100 μl of a test sample was added to each well of the plates. The plates were then incubated at 4° C. overnight and then washed 4 times with PBS containing 0.1% Tween 20. Next, 100 μl per well of Biotinylated anti-cMetR antibody (Cat#: BAF358, R&D Systems Inc., Minneapolis, Minn.) at 2 μg/ml, was added. […] The plates were then incubated for 2 hours with shaking, and were washed 4 times with PBS containing 0.1% Tween 20. Eu-streptavidin (1:1000 dilution in Assay buffer) (Cat#1244-360, Wallac Inc., Gaithersburg, Md.) was added and the plates were shaken at room temperature for 1 hour. The plates were then washed 4 times with PBS containing 0.1% Tween 20. Next, 100 μl of enhancement buffer (Wallac Inc., Cat#: 1244-105, Gaithersburg, Md.) was added. After at least for 5 minutes, the plates were read using Europium method on Victor 2 (1420 Multilabel Counter, Wallac Inc., Gaithersburg, Md.).
(§3) Percent inhibition of Met binding to HGF (i.e. neutralization) was calculated and IC₅₀ values were determined using the 4 parameter fit equation Excelfit, Version 2.0.6, (Microsoft Inc, Seattle, Wash.). In the presence of the antibodies to HGF discussed in Examples 6, Met binding to HGF was neutralized.
(In an ELISA, binding on a coated surface is turned into a signal by an enzyme label.)

Assay [3] shares this target. The experiment in a line: neutralization ELISA (left table): inhibition of the binding of soluble Met (2 nM) to plate-coated HGF, detected with biotinylated anti-cMetR antibody and Eu-streptavidin; column head 'IC50 IP (nM)'. Here is the method: as §1, §2, §3
Assay [4] shares this target. Put plainly: BIAcore 3000, kinetic method: antibody captured on immobilized Protein G, human HGF (0-100 nM) injected. The text has this:
The running buffer for those analyses was PBS with 0.005% P20 surfactant (BIAcore, Inc. Piscataway, N.J.). Recombinant Protein G (Pierce, Rockford, Ill.) was immobilized to a research grade CM5 sensor chip (Biacore, Inc. Piscataway, N.J.) via primary amine groups using the Amine Coupling Kit (Biacore, Inc. Piscataway, N.J.), according to the manufacturer's instructions.
In six separate samples, about 200 resonance units (RU) of each of the six antibodies to HGF was separately attached to immobilized Protein G following the manufacturer's instructions. Samples comprising various concentrations (0-100 nM) of human HGF were injected over the bound antibody surface at a flow rate of 50 μl/min for 3 minutes. Antibody binding kinetic parameters including kₐ (association rate constant), kd (dissociation rate constant), and KD (dissociation equilibrium constant) were determined using the BIA evaluation 3.1 computer program (BIAcore, Inc. Piscataway, N.J.). Lower dissociation equilibrium constants indicate greater affinity of the antibody for HGF.

T2 sequence (Q08048 33-728 limits assumed): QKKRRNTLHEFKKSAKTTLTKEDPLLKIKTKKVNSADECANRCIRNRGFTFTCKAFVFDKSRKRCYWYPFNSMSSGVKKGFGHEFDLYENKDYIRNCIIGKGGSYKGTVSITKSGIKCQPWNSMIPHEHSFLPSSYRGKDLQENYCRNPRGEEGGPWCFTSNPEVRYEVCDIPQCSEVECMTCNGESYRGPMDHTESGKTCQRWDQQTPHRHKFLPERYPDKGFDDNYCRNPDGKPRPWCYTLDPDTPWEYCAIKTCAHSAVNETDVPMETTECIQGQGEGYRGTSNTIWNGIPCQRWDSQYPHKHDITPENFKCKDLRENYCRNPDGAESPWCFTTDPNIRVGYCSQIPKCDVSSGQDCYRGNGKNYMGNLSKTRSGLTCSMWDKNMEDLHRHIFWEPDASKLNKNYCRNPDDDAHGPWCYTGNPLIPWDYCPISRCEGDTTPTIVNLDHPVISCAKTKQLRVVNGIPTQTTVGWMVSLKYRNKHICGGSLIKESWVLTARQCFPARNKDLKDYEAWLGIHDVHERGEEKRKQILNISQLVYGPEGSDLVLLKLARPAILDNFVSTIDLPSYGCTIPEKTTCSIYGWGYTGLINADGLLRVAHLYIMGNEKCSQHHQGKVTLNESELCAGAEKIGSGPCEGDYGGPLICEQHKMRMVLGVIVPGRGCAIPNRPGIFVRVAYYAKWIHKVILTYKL
T1 sequence (P14210 32-728 limits assumed): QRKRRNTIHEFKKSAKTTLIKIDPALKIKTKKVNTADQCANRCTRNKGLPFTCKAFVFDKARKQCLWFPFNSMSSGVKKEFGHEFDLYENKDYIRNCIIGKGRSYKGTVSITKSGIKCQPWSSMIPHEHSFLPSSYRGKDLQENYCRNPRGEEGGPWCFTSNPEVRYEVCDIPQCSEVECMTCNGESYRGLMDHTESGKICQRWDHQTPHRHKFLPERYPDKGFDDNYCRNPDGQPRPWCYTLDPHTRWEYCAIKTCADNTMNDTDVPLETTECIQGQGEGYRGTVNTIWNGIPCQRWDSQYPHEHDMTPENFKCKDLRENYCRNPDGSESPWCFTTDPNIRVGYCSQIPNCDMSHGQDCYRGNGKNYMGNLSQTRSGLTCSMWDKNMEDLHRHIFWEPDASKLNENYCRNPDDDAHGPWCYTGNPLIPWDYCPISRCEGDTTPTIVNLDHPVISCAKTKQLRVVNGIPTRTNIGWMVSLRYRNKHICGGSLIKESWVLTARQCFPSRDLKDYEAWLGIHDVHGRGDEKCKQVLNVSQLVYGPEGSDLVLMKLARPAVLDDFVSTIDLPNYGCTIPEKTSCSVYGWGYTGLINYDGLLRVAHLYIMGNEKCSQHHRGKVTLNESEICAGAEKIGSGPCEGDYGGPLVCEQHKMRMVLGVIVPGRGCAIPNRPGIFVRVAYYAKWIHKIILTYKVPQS

B1: antibody 1.60.1 (antibody, human IgG2, kappa, V domains shown)
VH: QVQLVQSGAEVKKPGASVKVSCKASGYTFTGYYINWVRQAPGQGLEWMGWINPNSGGTNYAQKFQGRVTMTRDTSITTAYMELSRLRADDTAVYYCARELELRYYGMDVWGQGTTVTVSS
VL: DIQMTQSPSSLSVSVGDRVTITCRASQGISSYLAWYQQKPGKVPKLLIYVASTLQSGVPSRFSGSGSGTDFTLTISSLQPEDVATYYCQNYNSDPLTFGGGTKVEIKR
notes: also called antibody to HGF ultimately derived from hybridoma 1.60.1
Regarding B1, the “IC50, inhibition of growth/survival of U-87 MG cells” value in assay [1] is under 100 nM. Further, the binding result in the assay with mouse HGF was “no binding (tested: 100 ng and 10 ng per lane)”.

B2: antibody 1.61.3 (antibody, human IgG2, kappa, V domains shown)
VH: QVQLQESGPGLVKPSQTLSLTCTVSGGSISSDGYYWSWIRQHPGKGLEWIGYIYYSGSTYYNPSLKSRVTISVDTSKNQFSLKLSSVTAADTAVYYCARSHLHYYDSSGYYYGGAFDIWGQGTMVTVSS
VL: DIQMTQSPSSLSASVGDRVTITCQASQDISNYLNWYQQKPGTAPKLLIYGASDLETGVPSRFSGSGSGTDFTFAISSLQPEDIATYYCQQYDNLPYNFGQGTKLEIKR
notes: also called antibody to HGF ultimately derived from hybridoma 1.61.3
As usually defined, the IC50 is the concentration that inhibits the measured activity by half. The low end stands for greater potency in that assay, the high end for weaker potency in that assay. B2: the “IC50, inhibition of growth/survival of U-87 MG cells” value in assay [1] is under 100 nM. Moreover, the binding result with mouse HGF is “no binding (tested: 100 ng and 10 ng per lane)”. For the same molecule, the IC50 in assay [2] turned out to be 2.59 nM.

B3: antibody 1.24.1 (antibody, human IgG2, kappa, V domains shown)
VH: QVQLVESGGGLVKPGGSLRLSCAASGFTFSDYYMSWIRQAPGKGLEWVSYISSSGSTIYYADSVKGRFTISRDNAKNSLYLQMNSLRAEDTAVYYCARDEYNSGWYVLFDYWGQGTLVTVSS
VL: DIQMTQSPSSVSASVGDRVTITCRASQGISSWLAWYQQKPGKAPNLLIYEASSLQSGVPSRFGGSGSGTDFTLTISSLQPEDFATYYCQQANGFPWTFGQGTKVEIKR
notes: also called antibody to HGF ultimately derived from hybridoma 1.24.1
As for B3, the “IC50, inhibition of growth/survival of U-87 MG cells” value in assay [1] was under 100 nM. In the assay with mouse HGF, the binding result was “no binding (tested: 100 ng and 10 ng per lane)”. The IC50 stood at 2.6 nM in assay [3] and 9.36 nM in assay [2].

B4: antibody 1.75.1 (antibody, human IgG2, kappa, V domains shown)
VH: QVQLQESGPGLVKPSQTLSLTCTVSGGSISSGGYYWSWIRQHPGKGLEWIGYIYYSGSTYYNPSLKSRVTISVDTSKNQFSLKVSSVTAADTAVYYCARDPLWFGEFDYYGMDVWGQGTTVTVSS
VL: DIQMTQSPSSLSASVGDRVTITCRASQGIRNDLGWFQQKPGKAPKRLIYAASSLQSGVPSRFSGSGSGTEFTLTISSLQPEDFATYYCLQHDSYPLTFGGGTKVEIKR
notes: also called antibody to HGF ultimately derived from hybridoma 1.75.1
As a reminder, the Kd is the free concentration of one partner at which half of the binding sites on the other are occupied at equilibrium, for simple one-to-one binding. Lower therefore signals a tighter complex. As a reminder, the koff is the first-order rate constant of dissociation. A low value points to a long-lived complex. As a reminder, the kon is the rate constant with which the complex forms. On to B4, for which the “IC50, inhibition of growth/survival of U-87 MG cells” value in assay [1] was under 100 nM. The binding result with mouse HGF was “no binding (tested: 100 ng and 10 ng per lane)”. Moreover, in assay [4], the dissociation constant Kd is about 0.78 nM, the koff was 2.8e-05 s⁻¹ and the kon worked out at 36000 M⁻¹ s⁻¹. In assay [3], this molecule gave an IC50 of 1 nM. In assay [2], the concentration for half-maximal inhibition (IC50) came out at 0.72 nM.

B5: antibody 2.40.1 (antibody, human IgG2, kappa, V domains shown)
VH: QVQLQESGPGLVKPSQTLSLTCTVSGGSISSGGYYWSWIRQHPGKGLEWIGNIYYSGITYYNPSLKSRVTMSVDTSKNQFSLKLSSVTAADTAVYYCARDPLYGDYGFDPWGQGTLVTVSS
VL: DIQMTQSPSSLSASVGDRVTITCRASQGIRNDLGWYQQKPGKAPKRLIYVASSLQSGVPSRFSGSGSGTEFTLTISSLQPEDFATYYCLQHNSYPLTFGGGTKVEIKR
notes: also called antibody to HGF ultimately derived from hybridoma 2.40.1
For the molecule B5, in assay [1], the “IC50, inhibition of growth/survival of U-87 MG cells” value was under 100 nM. In addition, the binding result with mouse HGF was “no binding (tested: 100 ng and 10 ng per lane)”. In assay [3], the IC50 came out at 1 nM.
